This is an account of results in patent US20250179205A1 (Hoffmann-La Roche, published 2025).

A word on the EC50: it is the concentration needed to bring the measured effect to its halfway point. Read a low EC50 as higher potency in that assay. A word on the EC50 (read off the curve): it is the concentration at which the effect is half-maximal. One may read the koff as the first-order rate constant of dissociation. What is called kon is a measure of how fast the partners come together.

Numbering of substitutions follows the chain as printed.

For experiment [1], the target named is T1, human CD40 (human, UniProt P25942 21-277). As to the kind of experiment: cell-based or functional assay.
T1 sequence (P25942 21-277 limits assumed): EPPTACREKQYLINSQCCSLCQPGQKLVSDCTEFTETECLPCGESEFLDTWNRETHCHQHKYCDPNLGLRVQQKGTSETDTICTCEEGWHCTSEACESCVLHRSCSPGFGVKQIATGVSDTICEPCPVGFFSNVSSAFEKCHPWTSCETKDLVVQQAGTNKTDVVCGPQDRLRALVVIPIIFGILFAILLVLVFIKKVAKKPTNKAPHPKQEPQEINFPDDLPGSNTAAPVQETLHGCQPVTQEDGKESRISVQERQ
In experiment [2] the target is T1, human CD40. Briefly: cell-based or functional assay. The source holds these as a separate data set.
In experiment [3] the target is T1, human CD40. As to the kind of experiment: flow cytometry, Daudi cells, PE anti-human Fc F(ab')2. Here is the method:
(§1) The binding to cell surface CD40 was tested using Daudi cells, a human B lymphoblast cell line with high expression levels of human CD40 (ATCC CCL-213). Daudi cells were cultured with 1× Dulbecco's Modified Eagle's Medium (DMEM) (Gibco, Cat. No. 42430-025) supplemented with 10% Fetal Bovine Serum (FBS) (life technologies, Cat. No. 16140, Lot No. 1797306A). 0.3×10⁵ Daudi cells were added in 200 μl of 1×DMEM with 10% FBS to each well of a round-bottom 96-well plate (Greiner Bio-One, CELLSTAR®, Cat. No. 650185). Plates were centrifuged 5 minutes at 1700 rpm and supernatants were flicked off. Cells were washed once with 200 μL of 4° C. cold FACS buffer (eBioscience, Cat. No. 00-4222-26). All samples were resuspended in 50 μL/well of 4° C. cold FACS buffer containing the bispecific antigen binding molecules (primary antibody) or isotype control antibody DP47 at the indicated range of concentrations (in duplicates) and incubated for 120 minutes at 4° C. Afterwards the cells were washed three times with 200 μL 4° C. cold FACS buffer. Cells were further stained with 25 μL/well of 4° C. cold secondary antibody solution (1:50 dilution of secondary antibody) containing R-Phycoerythrin (PE) conjugated AffiniPure F(ab′)₂ Fragment Goat Anti-Human IgG, Fcγ Fragment Specific (Jackson ImmunoResearch, Cat. No. 109-116-098) and incubated for 60 minutes at 4° C. in the dark. Cells were washed with 200 μl FACS buffer and resuspended in 85 μL/well FACS-buffer containing 0.2 μg/mL DAPI (Roche, Cat. No. 10236276001) and acquired the same day using a 5-laser LSR-Fortessa (BD Bioscience with DIVA software). Data analysis was performed using the FlowJo version 10 software (FlowJo LLC).

The target of experiment [4] is T2, human fibroblast activation protein (huFAP) (human, UniProt Q12884 1-760).
T2 construct: expressed on transfected NIH/3T3-huFAP clone 19 cells; also called human FAP
As to the kind of experiment: flow cytometry on NIH/3T3-huFAP clone 19 cells, PE-labelled anti-human IgG Fcgamma F(ab')2 secondary, MFI baseline corrected. Here is the method: (§2) NIH/3T3-huFAP clone 19 and NIH/3T3-mFAP clone 26 were generated by the transfection of the mouse embryonic fibroblast NIH/3T3 cell line (ATCC CRL-1658) with the expression vector pETR4921 to express under 1.5 μg/mL Puromycin selection huFAP or mFAP, respectively.
as §1, with “NIH/3T3-huFAP, NIH/3T3-mFAP or NIH/3T3-wt” for “The binding to cell surface CD40 was tested using Daudi cells, a human B lymphoblast cell line with high expression levels of human CD40 (ATCC CCL-213). Daudi”, “1797306A). For the NIH/3T3-huFAP and NIH/3T3-mFAP cells 1.5 μg/mL Puromycin (Gibco, Cat. No. A11138-03) was added to the medium for selection of FAP-expressing cells. NIH/3T3 cells were removed from the plate by using enzyme-free Cell Dissociation Buffer (Gibco, Cat. No. 13151014).” for “1797306A).”, “NIH/3T3-huFAP clone 19, NIH/3T3-mFAP clone 26 or NIH/3T3-wt” for “Daudi cells”, “1×DMEM” for “1×DMEM with”, “using” for “using a”, “Data analysis was performed using the FlowJo version 10 software (FlowJo LLC).” left out
For orientation: In flow cytometry, cells or beads pass a laser one at a time.

Experiment [5] has as its target T3, mouse fibroblast activation protein (mFAP) (mouse, UniProt P97321 1-761).
T3 construct: expressed on transfected NIH/3T3-mFAP clone 26 cells; also called murine FAP; mouse FAP
Briefly: flow cytometry on NIH/3T3-mFAP cells (3T3_mFAP), PE-labelled anti-human IgG Fcgamma F(ab')2 secondary, MFI baseline corrected. The procedure:
as §2
as §1, with “NIH/3T3-huFAP, NIH/3T3-mFAP or NIH/3T3-wt” for “The binding to cell surface CD40 was tested using Daudi cells, a human B lymphoblast cell line with high expression levels of human CD40 (ATCC CCL-213). Daudi”, “1797306A). For the NIH/3T3-huFAP and NIH/3T3-mFAP cells 1.5 μg/mL Puromycin (Gibco, Cat. No. A11138-03) was added to the medium for selection of FAP-expressing cells. NIH/3T3 cells were removed from the plate by using enzyme-free Cell Dissociation Buffer (Gibco, Cat. No. 13151014).” for “1797306A).”, “NIH/3T3-huFAP clone 19, NIH/3T3-mFAP clone 26 or NIH/3T3-wt” for “Daudi cells”, “1×DMEM” for “1×DMEM with”, “using” for “using a”

For experiment [6], the target named is T2, human fibroblast activation protein …. Briefly: flow cytometry, NIH/3T3-huFAP clone 19 cells, PE anti-human Fc F(ab')2. The procedure: as §2
as §1, with “NIH/3T3-huFAP, NIH/3T3-mFAP or NIH/3T3-wt” for “The binding to cell surface CD40 was tested using Daudi cells, a human B lymphoblast cell line with high expression levels of human CD40 (ATCC CCL-213). Daudi”, “1797306A). For the NIH/3T3-huFAP and NIH/3T3-mFAP cells 1.5 μg/mL Puromycin (Gibco, Cat. No. A11138-03) was added to the medium for selection of FAP-expressing cells. NIH/3T3 cells were removed from the plate by using enzyme-free Cell Dissociation Buffer (Gibco, Cat. No. 13151014).” for “1797306A).”, “NIH/3T3-huFAP clone 19, NIH/3T3-mFAP clone 26 or NIH/3T3-wt” for “Daudi cells”, “1×DMEM” for “1×DMEM with”, “using” for “using a”

The target in experiment [7] is T4, His-tagged human dimeric FAP (recombinant FAP_ECD) (human, UniProt Q12884 27-760).
T4 construct: also called hu FAP ectodomain + poly-lys-tag + his6-tag
Briefly: SPR (Biacore T200), His-tagged dimeric huFAP ECD captured by anti-His, antibody as analyte, 1:1 fit (avidity). Here is the method:
The capacity of the bispecific constructs to bind human FAP was assessed by surface plasmon resonance (SPR). All SPR experiments were performed on a BIACORE® T200 (BIACORE®) at 25° C. with HBS-EP as running buffer (0.01 M HEPES pH 7.4, 0.15 M NaCl, 3 mM EDTA, 0.005% Surfactant P20, (BIACORE®).
His-tagged human dimeric FAP (recombinant FAP_ECD) was captured on a CM5 chip (GE Healthcare) immobilized with anti-His antibody (Qiagen Cat. No. 34660) by injection of 500 nM huFAP for 60 s at a flow rate of 10 uL/min, 10 nM murine FAP for 20 s at a flow rate of 20 uL/min and 10 nM cynoFAP for 20 s at a flow rate of 20 uL/min. Immobilization levels for the anti-His antibody of up to 18000 resonance units (RU) were used. Following the capture step, the bispecific antibodies as well as control molecules were immediately passed over the chip surface at a concentration ranging from 0.78-100 nM with a flow rate of […] for 280 s and a dissociation phase of 180 s. Bulk refractive index differences were corrected for by subtracting the response obtained in a reference flow cell, where no FAP was immobilized. Avidity was determined using the Langmuir 1:1 curve fitting. For bivalent binding the same 1:1 fitting was used leading to an apparent KD value.
A general note: Surface plasmon resonance follows binding to a sensor surface in real time, without labels.

T3 sequence (P97321 whole entry): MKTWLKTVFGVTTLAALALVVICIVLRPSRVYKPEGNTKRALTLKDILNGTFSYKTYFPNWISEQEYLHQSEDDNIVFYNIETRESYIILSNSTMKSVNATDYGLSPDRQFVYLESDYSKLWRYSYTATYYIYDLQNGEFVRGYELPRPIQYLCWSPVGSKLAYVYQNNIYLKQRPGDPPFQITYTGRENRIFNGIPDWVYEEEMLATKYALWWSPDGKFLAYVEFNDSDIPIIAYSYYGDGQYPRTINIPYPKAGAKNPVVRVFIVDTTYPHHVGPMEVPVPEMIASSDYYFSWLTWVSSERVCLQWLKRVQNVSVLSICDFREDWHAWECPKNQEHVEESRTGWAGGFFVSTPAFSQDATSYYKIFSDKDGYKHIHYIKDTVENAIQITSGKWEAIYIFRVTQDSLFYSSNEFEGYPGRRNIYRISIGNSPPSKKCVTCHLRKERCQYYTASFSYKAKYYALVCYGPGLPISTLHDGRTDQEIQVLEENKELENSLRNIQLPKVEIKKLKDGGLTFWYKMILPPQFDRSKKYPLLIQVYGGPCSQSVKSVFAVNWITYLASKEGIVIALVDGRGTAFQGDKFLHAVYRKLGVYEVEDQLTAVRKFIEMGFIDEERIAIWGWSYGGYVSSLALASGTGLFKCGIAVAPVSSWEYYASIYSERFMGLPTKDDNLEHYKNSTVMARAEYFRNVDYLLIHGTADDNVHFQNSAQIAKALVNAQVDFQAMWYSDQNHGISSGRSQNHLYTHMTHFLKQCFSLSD

B1: P1AD4574 CD40 × DP47 (4 + 1) (bispecific antibody)
heavy 1: not shown
heavy 2: not shown
light: DIQMTQSPSSLSASVGDRVTITCRSSQSLVHSNGNTFLHWYQQKPGKAPKLLIYTVSNRFSGVPSRFSGSGSGTDFTLTISSLQPEDFATYFCSQTTHVPWTFGQGTKVEIKRTVAAPSVFIFPPSDEQLKSGTASVVCLLNNFYPREAKVQWKVDNALQSGNSQESVTEQDSKDSTYSLSSTLTLSKADYEKHKVYACEVTHQGLSSPVTKSFNRGEC
notes: also called huCD40-DP47
For B1, in the experiment with human CD40 [1], the “EC50, activation of human Daudi cells (CD70 expression) with FAP-coated Dynabeads” value turned out to be 0.166 nM. Besides, in the experiment with human CD40 [2], the “EC50, activation of HEK-Blue CD40L cells (SEAP) with murine FAP-coated Dynabeads” value is 0.421 nM. The EC50 with human CD40 [3] is 0.031 nM. The binding result in experiment [4] and in experiment [5] was “no binding (tested: 500 nM)” each time.

B2: P1AD4455 CD40 × FAP (28H1) (4 + 2) (bispecific antibody, human IgG1, kappa, L234A L235A)
heavy: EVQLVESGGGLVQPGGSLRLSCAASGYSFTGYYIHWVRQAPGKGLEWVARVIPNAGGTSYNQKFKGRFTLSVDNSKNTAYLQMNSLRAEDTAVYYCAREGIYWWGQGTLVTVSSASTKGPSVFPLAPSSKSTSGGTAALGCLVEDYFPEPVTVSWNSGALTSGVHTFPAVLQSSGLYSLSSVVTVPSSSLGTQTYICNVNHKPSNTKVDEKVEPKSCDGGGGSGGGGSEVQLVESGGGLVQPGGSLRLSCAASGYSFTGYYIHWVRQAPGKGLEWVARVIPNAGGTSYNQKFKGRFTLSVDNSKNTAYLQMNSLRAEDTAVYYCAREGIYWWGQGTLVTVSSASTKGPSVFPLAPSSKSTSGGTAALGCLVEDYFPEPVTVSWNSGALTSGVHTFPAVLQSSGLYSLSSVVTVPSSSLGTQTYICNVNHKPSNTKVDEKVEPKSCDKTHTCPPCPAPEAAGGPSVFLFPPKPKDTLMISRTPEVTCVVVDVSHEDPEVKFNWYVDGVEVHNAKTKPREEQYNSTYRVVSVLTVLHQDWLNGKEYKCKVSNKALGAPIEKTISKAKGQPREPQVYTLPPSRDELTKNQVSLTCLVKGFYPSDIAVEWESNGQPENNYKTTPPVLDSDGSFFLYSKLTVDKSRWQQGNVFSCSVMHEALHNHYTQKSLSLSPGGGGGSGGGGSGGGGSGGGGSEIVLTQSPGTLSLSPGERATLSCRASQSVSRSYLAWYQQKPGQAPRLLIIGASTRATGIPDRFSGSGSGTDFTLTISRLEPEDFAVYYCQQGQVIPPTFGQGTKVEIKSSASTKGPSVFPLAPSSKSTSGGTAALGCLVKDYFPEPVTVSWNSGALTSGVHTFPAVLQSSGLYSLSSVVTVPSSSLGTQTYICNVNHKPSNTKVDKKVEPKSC
light 1: B1 light with E128R, Q129K
light 2: EVQLLESGGGLVQPGGSLRLSCAASGFTFSSHAMSWVRQAPGKGLEWVSAIWASGEQYYADSVKGRFTISRDNSKNTLYLQMNSLRAEDTAVYYCAKGWLGNFDYWGQGTLVTVSSASVAAPSVFIFPPSDEQLKSGTASVVCLLNNFYPREAKVQWKVDNALQSGNSQESVTEQDSKDSTYSLSSTLTLSKADYEKHKVYACEVTHQGLSSPVTKSFNRGEC
notes: tetravalent for CD40, bivalent for FAP; also called CD40 × FAP 4 + 2; huCD40-28H1
Consider B2, for which, in experiment [6], the EC50 is 3.64 nM. The “EC50 (read off the curve)” value in experiment [4] and in experiment [5] was about 4 nM throughout.

B3: P1AD4465 CD40 × DP47 (4 + 2) (bispecific antibody)
heavy: not shown
light 1: B1 light with E128R, Q129K
light 2: not shown
notes: also called huCD40-DP47
B3: the EC50 in the experiment with human CD40 [3] amounted to 0.036 nM. In addition, the binding result in experiment [4] and in experiment [5] was “no binding (tested: 500 nM)” in each case.

B4: P1AE0192 CD40 × FAP (28H1) (1 + 1) Crossmab (bispecific antibody, human IgG1, kappa, L234A L235A)
heavy 1: not shown
heavy 2: EVQLVESGGGLVQPGGSLRLSCAASGYSFTGYYIHWVRQAPGKGLEWVARVIPNAGGTSYNQKFKGRFTLSVDNSKNTAYLQMNSLRAEDTAVYYCAREGIYWWGQGTLVTVSSASTKGPSVFPLAPSSKSTSGGTAALGCLVEDYFPEPVTVSWNSGALTSGVHTFPAVLQSSGLYSLSSVVTVPSSSLGTQTYICNVNHKPSNTKVDEKVEPKSCDKTHTCPPCPAPEAAGGPSVFLFPPKPKDTLMISRTPEVTCVVVDVSHEDPEVKFNWYVDGVEVHNAKTKPREEQYNSTYRVVSVLTVLHQDWLNGKEYKCKVSNKALGAPIEKTISKAKGQPREPQVCTLPPSRDELTKNQVSLSCAVKGFYPSDIAVEWESNGQPENNYKTTPPVLDSDGSFFLVSKLTVDKSRWQQGNVFSCSVMHEALHNRFTQKSLSLSPGK
light 1: B1 light with E128R, Q129K
light 2: B2 light 2
notes: monovalent for CD40 and for FAP; also called CD40 × FAP 1 + 1; 1+1 format
Take B4: the midpoint of the response in experiment [6], the EC50, lay at 1.15 nM. Besides, in experiment [7], the Kd came out at 2.2 nM, the koff came out at 0.00145 s⁻¹ and the kon came to 663000 M⁻¹ s⁻¹. The “EC50 (read off the curve)” value in experiment [5] was about 1 nM.

B5: P1AA9663 CD40 × FAP (28H1) (2 + 2) (bispecific antibody, human IgG1, kappa, L234A L235A)
heavy: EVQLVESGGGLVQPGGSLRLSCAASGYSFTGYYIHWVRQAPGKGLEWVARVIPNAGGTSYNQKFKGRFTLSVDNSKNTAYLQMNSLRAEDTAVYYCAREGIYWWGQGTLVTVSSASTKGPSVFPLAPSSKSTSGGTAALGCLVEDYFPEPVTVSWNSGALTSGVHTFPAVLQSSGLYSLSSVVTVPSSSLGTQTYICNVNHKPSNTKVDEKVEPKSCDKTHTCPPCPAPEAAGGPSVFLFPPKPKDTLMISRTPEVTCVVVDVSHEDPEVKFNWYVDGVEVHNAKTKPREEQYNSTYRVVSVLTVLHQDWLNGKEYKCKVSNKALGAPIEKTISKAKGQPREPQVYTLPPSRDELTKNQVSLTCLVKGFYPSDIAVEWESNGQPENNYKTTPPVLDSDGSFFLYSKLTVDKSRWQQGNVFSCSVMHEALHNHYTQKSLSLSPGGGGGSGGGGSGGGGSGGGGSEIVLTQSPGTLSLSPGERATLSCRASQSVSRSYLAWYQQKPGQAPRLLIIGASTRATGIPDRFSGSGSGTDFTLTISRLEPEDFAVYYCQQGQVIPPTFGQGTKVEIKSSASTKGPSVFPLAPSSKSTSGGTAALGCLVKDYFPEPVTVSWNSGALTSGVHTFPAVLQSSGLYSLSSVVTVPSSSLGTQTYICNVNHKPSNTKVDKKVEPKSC
light 1: B1 light with E128R, Q129K
light 2: B2 light 2
notes: bivalent for CD40 and for FAP; also called CD40 × FAP 2 + 2; huCD40-28H1
For B5, the EC50 in experiment [6] turned out to be 3.65 nM. For the same molecule, in experiment [5], the “EC50 (read off the curve)” value was about 4 nM.
